± gives the standard deviation.
Assay: protein stability index of a GFP-peptide fusion (GPS, HEK-293T) (PSI 1-6); higher = more stable
[1] = treatment: DMSO, c terminus: a fixed tail appended
[2] = treatment: MLN4924 1 uM, 8 h, c terminus: a fixed tail appended
[3] = treatment: DMSO, c terminus: native
[4] = treatment: MLN4924 1 uM, 8 h, c terminus: native
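Further: 24-mer peptide tiles fused after GFP, lentivirally expressed, FACS-sorted into six equal bins by GFP/DsRed ratio, decoded by Illumina sequencing, PSI is the read-weighted mean bin number.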

Sequence | protein stability index [1] | protein stability index [2] | protein stability index [3] | protein stability index [4]
SLKGSLSVEEQLSLISGCPNIQEA [CRYL1] | 4.18 ± 0.3 | 4.12 ± 0.36 |  | 
DCLKACQEQIEAVLLNSLQQYRQD [CCND2] | 2.32 ± 0.35 | 2.33 ± 0.28 |  | 
TRLLLQFTQPQQTSFALERNLRTQ [C8orf76] | 2.33 ± 0.46 | 2.52 ± 0.27 |  | 
REHKETCEMDWSDKMEAYNIDETC [TEKT4] | 5.26 ± 0.19 | 5.14 ± 0.077 |  | 
STWSDPSVNISLDNLLPGMQPSKP [CLINT1] | 4.3 ± 0.12 | 4.25 ± 0.099 |  | 
TALTSFCAKYTYPVCSALLDPVLQ [FANCE] | 2.31 ± 0.37 | 2.23 ± 0.35 |  | 
HSEILKYFQSVTSNRWLMVKIFLI [STX5] | 2.32 ± 0.36 | 2.4 ± 0.43 |  | 
GGGSYGKLFESVECYDPRTQQWTA [GAN] | 3 ± 0.13 | 3.13 ± 0.29 |  | 
VSGFCRSPPVMVAGGRVFVLPCIQ [FLOT1] | 2.43 ± 0.38 | 2.45 ± 0.5 |  | 
NQTAELRELLEFTHMYLQSDDEME [P3H4] | 4.83 ± 0.19 | 4.7 ± 0.18 |  | 
LDPDSKENAQIIYSLAEDTIQGVP [PCDHGA10] | 4.64 ± 0.15 | 4.56 ± 0.23 |  | 
EEETVTTKHIHITQATETTTTRHK [CLINT1] | 5.15 ± 0.2 | 5.19 ± 0.44 |  | 
DELIPEYLNFIRGVVDSEDLPLNI [HSP90AB1] | 3.22 ± 0.38 | 3.3 ± 0.47 |  | 
SATALYRTDYSGRGELSARQMHLA [RAD51] | 3.26 ± 0.19 | 3.33 ± 0.21 |  | 
RGIHNIQKRYHCKECGKVFSQSAG [ZSCAN9] | 2.58 ± 0.27 | 2.78 ± 0.24 |  | 
LLKCVRESDPSDPNKDMVVQLIDD [SRPK2] | 4.6 ± 0.41 | 4.57 ± 0.079 |  | 
WLISEEEKTQKNQCWKSLFIDTYS [FBXO3] | 2.16 ± 0.3 | 2.45 ± 0.33 |  | 
AALHMVIVAAFTWAFTLFFEVSE [KMT2E] |  |  | 2.48 ± 0.21 | 2.34 ± 0.16
PGFDRGQFHKQIAVMRGQILNLTQ [PI4K2A] | 2.56 ± 0.21 | 2.56 ± 0.28 |  | 
KPVDMWACGVILYILLVGYPPFWD [CAMK2D] | 3.46 ± 0.29 | 3.36 ± 0.41 |  | 
PPPASQPVVKALFGASAAGGLSPV [CDC25A] | 4.08 ± 0.14 | 4.17 ± 0.21 |  | 
RSERKKWIHCFEGVTAIIFCVALS [GNAI1] | 3.21 ± 0.4 | 2.89 ± 0.8 |  | 
NILIYETPRGPDPALLEATGGAAG [KCTD13] | 3.88 ± 0.19 | 3.84 ± 0.45 |  | 

Sequence | protein stability index [1] | protein stability index [2] | protein stability index [3] | protein stability index [4]
VPARDGTSCKLTDLRGVCVSGKCE [ADAMTSL2] | 3.95 ± 0.23 | 3.92 ± 0.29 |  | 
NNPISEHFHPTVIGESMYGDFEEA [TENT5C] | 4.89 ± 0.28 | 4.89 ± 0.17 |  | 
HSGQVTILKLEQENCTLVTTFRGH [WDFY2] | 2.35 ± 0.26 | 2.29 ± 0.28 |  | 
STHELEKKELEENFEKLRLSLQDQ [MTUS2] | 5.43 ± 0.14 | 5.33 ± 0.12 |  | 
VSTMRCKTRQKSEKQMEEKRRANQ [PPEF2] | 4.41 ± 0.7 | 4.79 ± 0.24 |  | 
IISSDELNVRSEEQVFNAVMAWVK [KLHL20] | 2.28 ± 0.22 | 2.42 ± 0.32 |  | 
MRYLRNHCLDQVGLFRKSGVKSRI [DLC1] | 2.64 ± 0.36 | 2.64 ± 0.37 |  | 
TEELIVQTKQVYDAVGMLGIEEVT [NLN] | 4.23 ± 0.17 | 4.1 ± 0.45 |  | 
RDSESTRHDSETEDMLWDDLLHGP [PHTF1] | 5.49 ± 0.31 | 5.4 ± 0.2 |  | 
SLSGVMLTDVSPEPLQALLERASA [PRAME] | 3.61 ± 0.4 | 3.51 ± 0.31 |  | 
TLPEYRVSVPENLPVGTQLLTVTA [PCDHGA10] | 3.36 ± 0.29 | 3.24 ± 0.3 |  | 
EFRRWRDTGVAFELRDSSAYHVPN [DNAAF3] | 2.75 ± 0.24 | 3 ± 0.32 |  | 
SRSNSRSRSYSPRRSRGSPRYSPR [SRSF1] | 5.28 ± 0.26 | 5.56 ± 0.065 |  | 
PIEVVTEGLLNTYQELLGLSFEQM [NLN] | 2.13 ± 0.37 | 2.29 ± 0.38 |  | 
SPVNMVTVAMVAGQCEFAHILHS [ZNF649] |  |  | 2.08 ± 0.19 | 1.87 ± 0.25
PGRREGCDICAGKAGCPIVEEPLG [RPS21] | 4.09 ± 0.33 | 4.25 ± 0.072 |  | 
SWRWIMLILFAWGTLLFYIGGHLV [FUT8] | 2.42 ± 0.14 | 2.27 ± 0.47 |  | 
LVTTGANVNETDDWGRTALHYAAA [ANKRD44] | 3.34 ± 0.26 | 3.52 ± 0.15 |  | 
QCLVEGCTEKFKTSRDRKDHMVRM [ZNF511] | 3.57 ± 0.27 | 3.95 ± 0.25 |  | 
SRMKFRGNGALSNISDLPFLAENS [LCOR] | 3.32 ± 0.31 | 3.47 ± 0.27 |  | 
LGIPKSTTSDIPHMLNQVESKVKD [FAM98B] | 5.04 ± 0.27 | 5.23 ± 0.11 |  | 
DIHITARIESDLTLESLSDEEIHP [DRICH1] | 4.85 ± 0.2 | 4.91 ± 0.19 |  | 
LVTGLAIEEACYAQTIPTKDRLEG [AUH] | 3.02 ± 0.34 | 3.13 ± 0.27 |  | 

Sequence | protein stability index [1] | protein stability index [2] | protein stability index [3] | protein stability index [4]
TNLKETYRCIREARYTMPSSLLAP [PLK2] | 2.34 ± 0.54 | 2.3 ± 0.08 |  | 
AKLHDVELHQVAERVEALGQFVMK [GNB5] | 3.78 ± 0.2 | 3.74 ± 0.14 |  | 
VVHWVQSIGLRDYAGNLHESGVHG [PPFIA4] | 2.56 ± 0.27 | 1.93 ± 0.36 |  | 
RESPSFKLEPMETERSPGPRLQEL [ZNF263] | 4.42 ± 0.14 | 4.51 ± 0.2 |  | 
NVPNVCRMYCSDLLNPNLKDTVIC [SPACA3] | 2.15 ± 0.3 | 2.31 ± 0.28 |  | 
NRSLAEACSEGDVNAVRKLLIEGR [ANKRD17] | 4.01 ± 0.26 | 4.12 ± 0.27 |  | 
ARIQQSRRQCHAEEDQSQVPEAG [SMIM2] |  |  | 3.25 ± 0.4 | 3.29 ± 0.31
EEGPTVVLNPHPSLGYKEIRKGES [CHGA] | 4.96 ± 0.29 | 5.03 ± 0.27 |  | 
IRRPVNVPIDIFSEEIRFYQLGEE [KCNA3] | 2.59 ± 0.56 | 2.75 ± 0.37 |  | 
YQVAALQGDLASLRAELQGHHAEK [TNFSF13B] | 3.71 ± 0.14 | 3.88 ± 0.099 |  | 
VGWWALLALVTLLSFATRFHRLDE [POMT2] | 3.42 ± 0.39 | 2.98 ± 0.39 |  | 
CDLADRELVVIIGWAKHIPGFSTL [ESRRG] | 2.92 ± 0.76 | 3.05 ± 0.56 |  | 
SVVNVGCGPAEERVLLTGLHAVAD [YPEL3] | 3 ± 0.78 | 3.29 ± 0.7 |  | 
RKGLQHGFFDFETFDVDEYEHYER [CDC14A] | 3.93 ± 0.31 | 3.94 ± 0.41 |  | 
VLDCRPYLAFAASNVRGSLNVNLN [DUSP5] | 2.19 ± 0.34 | 1.99 ± 0.39 |  | 
KLAKVYSYAHGWMFQGWNCGDYFP [CPN1] | 2.52 ± 0.43 | 2.52 ± 0.38 |  | 
FRPYFTIHDSEFKEYTTRTQAPPS [DENND6A] | 2.55 ± 0.23 | 2.71 ± 0.27 |  | 
GLRKRIATLFFHYIKTPLFNPEVA [IQUB] | 2.12 ± 0.36 | 2.19 ± 0.74 |  | 
GALWGLQAQAVQTEQAVALLRDRT [SCARA5] | 3.07 ± 0.23 | 3.03 ± 0.31 |  | 
LEAEIATYRRLLEDGEDFNLGDAL [KRT18] | 4.41 ± 0.15 | 4.53 ± 0.25 |  | 
ERSQEESPPGSTKRRKSMSGASPK [CDC25A] | 5.48 ± 0.19 | 5.46 ± 0.12 |  | 
TMDGEGTLFQTESPQSGSILTEET [PBXIP1] | 5.44 ± 0.066 | 5.43 ± 0.17 |  | 
ASLHTLLGDPCPMLESPGAPCRSA [HDAC6] | 3.62 ± 0.23 | 3.83 ± 0.27 |  | 

Sequence | protein stability index [1] | protein stability index [2] | protein stability index [3] | protein stability index [4]
SRAILQRVQAAAFGPGQTLLSSVH [ALKBH7] | 2.72 ± 0.14 | 2.65 ± 0.35 |  | 
CHHGLVADSLQASMEKDATLNVDR [DLC1] | 4.35 ± 0.12 | 4.47 ± 0.25 |  | 
MTELRQRVAHEPVAPPEDKESESE [CDS2] | 5.39 ± 0.26 | 5.44 ± 0.23 |  | 
IPQGICPVGRSWHSLTPVSSDHLF [KLHDC2] | 2.68 ± 0.28 | 2.52 ± 0.21 |  | 
AVQAQAGWLQHDFGHLSVFSTSKW [FADS1] | 2.23 ± 0.18 | 2.29 ± 0.33 |  | 
CAKMEKDGYGMTPLLSASVTGHTN [FEM1C] | 3.58 ± 0.26 | 3.55 ± 0.11 |  | 
VVKLENGEIETIARFGSGPCKTRD [APMAP] | 3.77 ± 0.16 | 3.72 ± 0.31 |  | 
IFIARRSLLDELLEVDHIRTIYHM [SOAT1] | 2.8 ± 0.58 | 2.66 ± 0.75 |  | 
SQSETSSAVSTPSPVTRTRSLSAC [DLC1] | 4.89 ± 0.23 | 4.87 ± 0.14 |  | 
SKPKNSVWKRLKSPFRKKKDSVT [RIT1] |  |  | 3.55 ± 0.49 | 3 ± 0.43
VCQRMLNQGFLKVERYHNLCQKQV [FBXO28] | 2.18 ± 0.36 | 2.37 ± 0.27 |  | 
FNSILPGVLILFLTFFAFLHCWLN [SOAT1] | 2.22 ± 0.63 | 2.29 ± 0.36 |  | 
PQFTGILQLLQSRTSRKFLACRLT [INTS3] | 2.18 ± 0.41 | 2.16 ± 0.27 |  | 
VHNIVIFMRTSVKISYIGLMTQSS [TMEM106C] | 2.83 ± 0.38 | 3.03 ± 0.32 |  | 
PVFLHSQMLWELVLLGEPLVVMAP [DENND6A] | 2.81 ± 0.63 | 2.98 ± 0.69 |  | 
QIDAVGSKLKMLERKGWLAPSPGV [PKD2L1] | 3 ± 0.45 | 3.17 ± 0.22 |  | 
SLYRDIRDIQDENQLLVADVKRLG [STX11] | 3.67 ± 0.33 | 3.58 ± 0.22 |  | 
SRSENVLSRLSLMAMPNGFHEDGP [PSD2] | 3.73 ± 0.17 | 3.87 ± 0.27 |  | 
KGKKLYPVVSAVWGHCEVTMRYIN [SPSB4] | 2.43 ± 0.82 | 2.65 ± 0.6 |  | 
GDKGALQRLIVGNSALKDKEDQFG [INVS] | 4.62 ± 0.21 | 4.72 ± 0.093 |  | 

From the supplement of paper PMC10567573
